The DeepSol protein solubility set

Test: soluble on expression in E. coli; label from the status in PepcDB or PDB records

Row | Sequence | soluble on expression in E. coli
1 | MNNFLKHNDWARDPAFNHFWRHYDFSNQWIKQHTDASRQVQMQMVQRDNLSTEQCFSDSEEPEVIERLSRCEIYSEIENEESDIEEMSEEMKAFFAKTQEHRQKFSIRGRIEQSTDHRNASAEFIAKREKAKKDYGESATKILAMESTLAMKFESEYSQNPQLWPNIPFRF | not soluble
2 | MSLIKITIGICEYPSVLKSAVYGFEEMFLLANRICKEQNIEVVFEPILIPHTGLTAERLTVVLLPPASLDNYYLAPDDALIRWLKAHYSQGTVLSSACAGVFILAATNLIDSREVTTHWALAETFSQAFPSIALDSNKILINHGDIVTAGGMMSWLDLGFELIAKYASPGVVRQLGKTLVIDTAQRAQSYYQQFHPSFSHGDYAIVSIQQIMHQRYAEPLSIKQLAKQANLTERTMQRRFLKATGYNPNQYLQRLRIQSACHLLESTQHSFDSISHQVGYEDTSACRKVFINVIGLTPREFRKRFAEGHHHHHH | soluble
3 | MSLGEETSYCFKEKSRGVLREWYAHNPYPSPREKRELAEATGMTTTQVSNWFKNRRQRDRAAEAKERENTENEGHHHHHH | soluble
4 | PVKVVVGKTFDAIVMDPKKDVLIEFYAPWCGHCKQLEPIYTSLGKKYKGQKDLVIAKMDATANDITNDQYKVEGFPTIYFAPSGDKKNPIKFEGGNRDLEHLSKFIDEHATKRSRTKEEL | soluble
5 | MKYPPSLVSLIRELSRLPGIGPKSAQRLAFHLFEQPREDIERLASALLEAKRDLHVCPICFNITDAEKCDVCADPSRDQRTICVVEEPGDVIALERSGEYRGLYHVLHGVLSPMNGVGPDKLHIKPLLPRVGQGMEVILATGTTVEGDATALYLQRLLEPLGAAISRIAYGVPVGGSLEYTDEVTLGRALTGRQTVSKPQPPQRPGDEDGADGAAVPASRLEHHHHHH | soluble
6 | MELYELAQAAGGGIDPDVFKILVDLLKLNVAPLAVFQMLKSMCAGQRLASEPQDPAAVSLPTSSVPETRGRDKGSAALGGVLALAERSNHEGSSQRMPRQPSATRLPKGGGPGKSPTQGST | soluble
7 | MGSDKIHHHHHHMISDLESLGIDFKDEGENYVPKKDYSGNLVAKYVFDSNGISTDNITLKDLSGHGYDGTMSGVSIKDDSELGKCAYFNGSASVNFNNQIIPKGNKTIIITFKKDSGTQSNGQYEFLIEQGSGQGESITSWSIRFDSYKTACLNNLYFCNDDSKINMLNSHPAVFNVCDGKKHTAIFNYYDNKTNNTYCDSLKAHVCSFDFNGGEYRTADNSIIGQKYVGYIKSIEIYDDVVEFNSISTGTSLNKNIDQLIIGQTDNLVATIMPEDVTDKSVIWSSSDPSIVAVDENGKITALKVGEVSITVTTNDGSNLSQTCMVAVIDTTIPDKACLNISMTNGQVKQYYVGMDLVNKFISWYKLRSAGSEEPFYEFDITQLSEPGILRHDYVVFNKISSFTVDDYVK | not soluble
8 | MTDVVVAGGGLAGLVAARHLAESGRDVTVFEQRSDVGGRVRTVHEDGYTFDRGFQVMFTAYPAAKRELDIEALAPRTFTPGATIASPNHRSVLSDPLRNPSAAPQTLLNTDVRTADKLRLFRLQRELAGVEPVELLSRGGTTIREYLADYGFSKRFVERFAAPFYGGITLDRSLGTDSSIFEYTYKMLSEGEIFVPADGMQAMPRQLADRARSAGATIETDAPVTELETHEGEVTAEVGRETVTAESAVVATDPQTAAELTDIDAIPTEPVGCVTQYFALPTNRAPATGQRIILNATDDRPNTVAPLSAVASEYAPAGMELYSATFLGTPEEDDAELAAEVRAALQSWYPNASFEALELLRTDRVPLSQFAQPPGYRDALPDPTAPEGNAVLAGDYTRWSAIQGALESGKVAADLLRLEHHHHHH | not soluble
9 | MMSNQTVYQFIAENQNELLQLWTDTLKELSEQESYQLTDQVYENISKEYIDILLLSVKDENAAESQISELALRAVQIGLSMKFLATALAEFWKRLYTKMNDKRLPDQESTELIWQIDRFFSPINTEIFNQYSISWE | soluble
10 | MGSDKIHHHHHHMIDIHCHILPEIDDGPSSLEESLVMAREAVKEGITKIIATPHHLHPSYNNKAAVVKEKVRKLNEAIQKENIPLEILPGQEVRISGDVMDGLVSGDILTLADQGKYLFVEFSSNHVSRYADKLFFQLLSQDIIPIIVHPERNHEFLKNPGLLYDLVNGGALTQITTSSLTGHLGKKIKKFTEQIIEADLTHFLASDAHNVTERTFRIREAFALVEKNYGSSKAYEFQENAELLVENQHVMGPPPQPIVKKKLLGIF | not soluble
11 | MNSSKAGGCHGINDIKVKTAKPKDKPYKLADGGGMYLLINTNGSKYWRMKYRFAGKEKMLSIGVYPDVTLADAREKRSEARKLLAAGGDPGEAKKEEKIAQQMSLKNTFEAIAREWHQLKADRWSLRYRDEIIDTFEKDIFPYIGKRPIAEIKPMKLLEALRKMEKRGALEKMRKVRQRCGEVFRYAIVTGRADYNPAPDLASALATPKKVHFPFLTANELPHFLNDLAGYTGSIITKTATQIIMLTGVRTQELRFARWEDIDFETKLWEIPAEVMKMKRPHIVPLSEQVIMLFKQLEPISKHHPLVFIGRNDPRKPISKESINQVIELLGYKGRLTGHGFRHTMSTILHEQGFNSAWIEMQLAHVDKNSIRGTYNHALYLDGRREMMQWYADYIDSLSSRES | not soluble
12 | SPEIMKDLSINFGKALDTCKKELDLPDSINEDFYKFWKEDYEITNRLTGCAIKCLSEKLEMVDADGKLHHGNAREFAMKHGADDAMAKQLVDLIHGCEKSIPPNDDRCMEVLSIAMCFKKEIHNLKWAPNMEVVVGEVLAEV | soluble
13 | METAKEMTRESLPIKCLEAVILGIYLTNGQPSIERFPISFKTYFSGNYFHHVVLGIYCNGRYGSLGMSRRAELMDKPLTFRTLSDLIFDFEDSYKKYLHTVKKVKIGLYVPHEPHSFQPIEWKQLVLNVSKMLRADIRKELEKYARDMRMKGLCSH | soluble
14 | MDVQDLKPPKPLYLERVGFRGVRRRALLETPEGPVTLDLELDVFVDLDRSKRGVHLSRNIEAVEAVVSERRARSIEGLLRSIAKELLSRHGYAEKATVRARTRYYIDLEAAGVKGREPVDVAVTVSLTRSGGERWRVAVSVKGMTVCPSAQSTIAEAEGISDPSRAPSHSQKVLLKGTVDTGKVMVRIEDLARALLQSFSAPTFTLLKKPQEARLILEAFTRPMFVEDVVREAAWRIAAIPYIPGEALLQVEAVSLESIHPHDLVAMLRSRVSEVRSLASRSV | not soluble
15 | MVAHQKADFKSKWAMVVTVNNLNDKKRADLREFSEWFIETLRLEGAFIGHYFNYEAAPVTIVETLPGNFDSCTNAYQKIHKEHPQVVLVVHILPQSQSNEYEWMKVLASRYGFVRQGLLYDNCANRFQNVETDQNSVFRNMCQWIYRSGTAIVRNEGNACGILHGKDPKPTFDKVLFNSEDIKDSVFKVLHAEEEPRGADQENMLKISGYPGMLNTFGIAQLLTPYRVNGITITGAQSAVVALENKFQVYQAVQDFNGKKLDRNHKLQVSSLVVSSPAVPLEWPSLKKSKKLVEQVGKPIRLSKVSS | not soluble
16 | AMARVGVLGAKGKVGATMVRAVAAADDLTLSAELDAGDPLSLLTDGNTEVVIDFTHPDVVMGNLEFLIDNGIHAVVGTTGFTAERFQQVESWLVAKPNTSVLIAPNFAIGAVLSMHFAKQAARFFDSAEVIELHHPHKADAPSGTAARTAKLIAEARKGLPPNPDATSTSLPGARGADVDGIPVHAVRLAGLVAHQEVLFGTEGETLTIRHDSLDRTSFVPGVLLAVRRIAERPGLTVGLEPLLDLH | soluble
17 | MNRESFAAGERLVSPAYVRQGCEARRSHEHLIRLLLEKGKCPENGWDESTLELFLHELAIMDSNNFLGNCGVGEREGRVASALVARRHYRFIHGIGRSGDISAVQPKAAGSSLLNKITNSLVLDIIKLAGVHTVANCFVVPMATGMSLTLCFLTLRHKRPKAKYIIWPRIDQKSCFKSMITAGFEPVVIENVLEGDELRTDLKAVEAKVQELGPDCILCIHSTTSCFAPRVPDRLEELAVICANYDIPHIVNNAYGVQSSKCMHLIQQGARVGRIDAFVQSLDKNFMVPVGGAIIAGFNDSFIQEISKMYPGRASASPSLDVLITLLSLGSNGYKKLLKERKEMFSYLSNQIKKLSEAYNERLLHTPHNPISLAMTLKTLDEHRDKAVTQLGSMLFTRQVSGARVVPLGSMQTVSGYTFRGFMSHTNNYPCAYLNAASAIGMKMQDVDLFIKRLDRCLKAVRKERSKESDDNYDKTEDVDIEEMALKLDNVLLDTYQDASS | soluble
18 | MIPPEIRRSVLLQKAIKLALAGTLLTFASFSATAADPSSDTETPQPPDILLGPLFNDVQNAKLFPDQKTFADAIPNSDPLMILADYRMQRNQSGFDLRHFVDVNFTLPKAGEKYVPPAGQSLREHIDGLWPVLTRSTKNVEKWDSLLPLPESYVVPGGRFREIYYWDSYFTMLGLAESGHWDKVADMVANFGYEIDAWGHIPNGNRTYYLSRSQPPFFAFMVELLAQHEGDDALKEYLPQLQKEYAYWMEGVETLQPGQQNQRVVKLEDGSVLNRYWDDRDTPRPESWVEDIATAKSNPNRPATEIYRDLRSAAASGWDFSSRWMDNPQQLSTIRTTTIVPVDLNALLYQLEKTLARASAAAGDRAKASQYDALANARQKAIEMHLWNNKEGWYADYDLQNNKIRDQLTAAALFPLYVNAAAKDRAVKVAAAAQAHLLQPGGLATTSVKSGQQWDAPNGWAPLQWVAAEGLQNYGQDDVAMEVTWRFLTNVQHTYDREKKLVEKYDVSSTGTGGGGGEYPLQDGFGWTNGVTLKMLDLICPQEKPCDSVPSTRPASLSATPTKTPSAATQLEHHHHHH | not soluble
19 | MKKIGIIGGTTPESTLYYYKKYIEISREKFEKYFYPELIIYSINFKEFFQNPEGWEGRKKILINAAKALERAGAELIAFAANTPHLVFDDVQREVNVPMVSIIDAVAEEILKRGVRKVLLLGTKTTMTADFYIKTLEEKGLEVVVPNDEEKEELNRIIFEELAFGNLKNKEWIVRLIEKYRESEGIEGVILGCTELPLAIKQGDVSVEVFDSAEIHMRKLIELASE | soluble
